From article PMC12340889 come the findings set out here.

Data set [1] relates to DriD WT (Caulobacter crescentus). The data set is described as follows: fluorescence polarization. Particulars: FP: 25 mM Tris-HCl pH 7.5, 150 mM NaCl, 2.5% glycerol, 100 uM ssDNA, temperature not stated; cryo-EM: 20 mM Tris-HCl pH 8, 5 mM MgCl2, 100 mM NaCl, 1 mM bME …. In general terms: In fluorescence polarisation assays a small probe gives low polarisation when free and higher when bound to something large.

Data set [2] deals with DriD(G18K-A20K) (Caulobacter crescentus). The data set is described as follows: fluorescence polarization. Conditions: FP: 25 mM Tris-HCl pH 7.5, 150 mM NaCl, 2.5% glycerol, 100 uM ssDNA, temperature not stated; cryo-EM: 20 mM Tris-HCl pH 8, 5 mM MgCl2, 100 mM NaCl, 1 mM bME ….
Data set [3] addresses C. crescentus DriD (wild type) (C. crescentus). The data set is described as follows: fluorescence polarisation; DriD (WT or mutant) first bound to fluoresceinated target DNA with 100 μM ssDNA, then increasing αCTD titrated in; 25 mM Tris-HCl pH 7.5, 150 mM NaCl, 2.5 % glycerol; apparent Kd; three technical replicates.

For the substance “ATACGACAGTAACTGTCGTAT (double strand) [F-DriD target DNA]”, the Kd in data set [1] stood at 7.1 nM; in data set [2] it was 9.2 nM. As for “C. crescentus α subunit CTD (α residues 161–248) (domain or fragment)”, the Kd in data set [3] was 30000 nM.
